Experimental data from article PMC3866869.
One block for each substance: values may come before it.

Columns and labels:
Assay in all cases: crystal structure; hanging drop; protein in 25 mM HEPES pH 7.5, 150 mM NaCl, 5% glycerol with 5 mM glutamate or 1 mM KA, mixed 1:1 with reservoir (19-27% PEG 4000, 0-9% propan-2-ol, 80 mM sodium acetate); data collected at 100 K; LBD dimer, one (I222) or two (P212121) dimers in the asymmetric unit
[1] = target: GluK2 K531A ligand-binding domain (rat) (UniProt P42260)
[2] = target: GluK2 K531A-T779G ligand-binding domain (rat) (UniProt P42260)
[3] = target: GluK2 R775A ligand-binding domain (rat) (UniProt P42260)

stoichiometry N [1]: 2
Substance: GluK2 K531A ligand-binding domain (from UniProt P42260 32-544; P42260 667-908) (domain or fragment)

stoichiometry N [2]: 2
Substance: GluK2 K531A-T779G ligand-binding domain (from UniProt P42260 32-544; P42260 667-908) (domain or fragment)

stoichiometry N [3]: 2
Substance: GluK2 R775A ligand-binding domain (from UniProt P42260 32-544; P42260 667-908) (domain or fragment)
